Data as given in US20100196934A1.
Where “and” joins values, the source holds several entries; their conditions need not be identical. Identical values can stand only once. Like-named read-outs stand apart in the source and are kept apart here.

Legend:
[1] = molecular target: Syrian hamster PrP^C (normal SHa brain homogenate) (Syrian hamster); assay: sandwich ELISA, capture 3F4; normal SHa BH, trypsin 50 ug/mL, NaOH-denatured
[2] = molecular target: Syrian hamster PrP^C (normal SHa brain homogenate) (Syrian hamster); assay: sandwich ELISA, capture 3F4; normal SHa BH, trypsin 25 ug/mL, GdnHCl-denatured
[3] = molecular target: Syrian hamster PrP^Sc (scrapie-infected SHa brain homogenate) (Syrian hamster); assay: sandwich ELISA, capture 3F4; infectious SHa BH, PK 25 ug/mL, GdnHCl-denatured
[4] = molecular target: Syrian hamster PrP^C (normal SHa brain homogenate) (Syrian hamster); assay: sandwich ELISA, capture 3F4; normal SHa BH, trypsin 25 ug/mL, not denatured
[5] = molecular target: Syrian hamster PrP^Sc (scrapie-infected SHa brain homogenate) (Syrian hamster); assay: sandwich ELISA, capture 3F4; scrapie-infected SHa BH, PK 0 ug/mL, NaOH-denatured
[6] = molecular target: Syrian hamster PrP^C (normal SHa brain homogenate) (Syrian hamster); assay: sandwich ELISA, capture 3F4; normal SHa BH, trypsin 5 ug/mL, NaOH-denatured
[7] = molecular target: Syrian hamster PrP^Sc (scrapie-infected SHa brain homogenate) (Syrian hamster)
[8] = molecular target: Syrian hamster PrP^C (normal SHa brain homogenate) (Syrian hamster); assay: sandwich ELISA, capture 3F4; normal SHa BH, PK 5 ug/mL, NaOH-denatured
[9] = molecular target: Syrian hamster PrP^C (normal SHa brain homogenate) (Syrian hamster); assay: sandwich ELISA, capture 3F4; normal SHa BH, PK 10 ug/mL, NaOH-denatured
[10] = molecular target: Syrian hamster PrP^C (normal SHa brain homogenate) (Syrian hamster); assay: sandwich ELISA, capture 3F4; normal SHa BH, trypsin 50 ug/mL, not denatured
[11] = molecular target: Syrian hamster PrP^C (normal SHa brain homogenate) (Syrian hamster); assay: sandwich ELISA, capture 3F4; normal SHa BH, PK 0 ug/mL, NaOH-denatured
[12] = molecular target: Syrian hamster PrP^C (normal SHa brain homogenate) (Syrian hamster); assay: sandwich ELISA, capture 3F4; normal SHa BH, trypsin 100 ug/mL, NaOH-denatured
[13] = molecular target: Human PrP^C (normal human plasma; normal human brain homogenate) (human); assay: sandwich ELISA, capture 3F4; normal human plasma, trypsin 0 ug/mL, not denatured
[14] = molecular target: Syrian hamster PrP^C (normal SHa brain homogenate) (Syrian hamster); assay: sandwich ELISA, capture 3F4; normal SHa BH, trypsin 0 ug/mL, NaOH-denatured
[15] = molecular target: Syrian hamster PrP^C (normal SHa brain homogenate) (Syrian hamster); assay: sandwich ELISA, capture 3F4; normal SHa BH, trypsin 20 ug/mL, NaOH-denatured
[16] = molecular target: Syrian hamster PrP^Sc (scrapie-infected SHa brain homogenate) (Syrian hamster); assay: sandwich ELISA, capture 3F4; scrapie-infected SHa BH, PK 5 ug/mL, NaOH-denatured
[17] = molecular target: Syrian hamster PrP^C (normal SHa brain homogenate) (Syrian hamster); assay: sandwich ELISA, capture 3F4; normal SHa BH, trypsin 0 ug/mL, not denatured
[18] = molecular target: Syrian hamster PrP^C (normal SHa brain homogenate) (Syrian hamster); assay: sandwich ELISA, capture 3F4; normal SHa BH, PK 25 ug/mL, GdnHCl-denatured
[19] = molecular target: Syrian hamster PrP^C (normal SHa brain homogenate) (Syrian hamster); assay: sandwich ELISA, capture 3F4; normal SHa BH, PK 20 ug/mL, NaOH-denatured
[20] = molecular target: Syrian hamster PrP^C (normal SHa brain homogenate) (Syrian hamster); assay: sandwich ELISA, capture 3F4; normal SHa BH, trypsin 100 ug/mL, not denatured
[21] = molecular target: Syrian hamster PrP^C (normal SHa brain homogenate) (Syrian hamster); assay: sandwich ELISA, capture 3F4; normal SHa BH, PK 100 ug/mL, NaOH-denatured
[22] = molecular target: Syrian hamster PrP^C (normal SHa brain homogenate) (Syrian hamster); assay: sandwich ELISA, capture 3F4; normal SHa BH, PK 50 ug/mL, NaOH-denatured
[23] = molecular target: Syrian hamster PrP^C (normal SHa brain homogenate) (Syrian hamster); assay: sandwich ELISA, capture POM17; normal SHa BH, PK 25 ug/mL, GdnHCl-denatured
[24] = molecular target: Syrian hamster PrP^Sc (scrapie-infected SHa brain homogenate) (Syrian hamster); assay: sandwich ELISA, capture POM17; infectious SHa BH, PK 25 ug/mL, GdnHCl-denatured
[25] = molecular target: Syrian hamster PrP^C (normal SHa brain homogenate) (Syrian hamster); assay: sandwich ELISA, capture POM17; normal SHa BH, trypsin 25 ug/mL, GdnHCl-denatured
[26] = molecular target: Syrian hamster PrP^C (normal SHa brain homogenate) (Syrian hamster); assay: sandwich ELISA, capture 3F4; normal SHa BH, trypsin 10 ug/mL, NaOH-denatured

With POM2 antibody the RLU [1] was 3.4 RLU, the RLU [2] was 21.4 RLU and the RLU [3] was 527 RLU. For the same substance, the RLU [4] was 20.5 RLU, the RLU [5] was 2290 RLU and the RLU [6] was 33.2 RLU. For the same substance, the RLU [7] was 2370 RLU and 2250 RLU, the RLU [8] was 84.1 RLU and the RLU [9] was 50.2 RLU. For the same substance, the RLU [10] was 14.9 RLU, the RLU [11] was 1950 RLU and the RLU [12] was 3.4 RLU. For the same substance, the RLU [13] was 195 RLU, the RLU [14] was 2140 RLU and the RLU [15] was 8.5 RLU. For the same substance, the RLU [16] was 2310 RLU, the RLU [17] was 2940 RLU and the RLU [18] was 10 RLU. The RLU [19] was 37.1 RLU, the RLU [20] was 11.7 RLU and the RLU [21] was 4.6 RLU. The RLU [22] was 15.8 RLU, the RLU [23] was 13.4 RLU and the RLU [24] was 596 RLU. The RLU [25] was 70.6 RLU and the RLU [26] was 19.7 RLU.
